Reference: the supplement of paper PMC9112550, “Optimization of the antimicrobial peptide Bac7 by deep mutational scanning” (BMC Biology, 2022)

Test system: Escherichia coli TOP10
Assay: shrunken log2 fold change of peptide-encoding DNA abundance (4.5 h post-induction vs induction); higher = less antimicrobial activity (less host growth inhibition)
Details: time post-induction: 4.5 h; library: site-saturation at positions 5, 18, 19, 20
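Further: peptides expressed intracellularly from a pBAD plasmid library in pooled LB shake-flask culture, induced with 0.3% L-arabinose, DNA abundance read by NGS, three biological replicates, DESeq2 with apeglm shrinkage.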

RRIRPRPPRLPRPRPRPLQTPRP
shrunken log2 fold change: 0.0208

RRIRPRPPRLPRPRPRPLRTPRP
shrunken log2 fold change: 0.831

RRIRPRPPRLPRPRPRPLSFPRP
shrunken log2 fold change: -0.132

RRIRPRPPRLPRPRPRPLVMPRP
shrunken log2 fold change: 0.0377

RRIRPRPPRLPRPRPRPLVTPRP
shrunken log2 fold change: -0.302

RRIRPRPPRLPRPRPRPLVWPRP
shrunken log2 fold change: 0.412

RRIRPRPPRLPRPRPRPLWQPRP
shrunken log2 fold change: 0.0105

RRIRPRPPRLPRPRPRPLYSPRP
shrunken log2 fold change: -0.194

RRIRPRPPRLPRPRPRPMAFPRP
shrunken log2 fold change: 0.0207

RRIRPRPPRLPRPRPRPMAIPRP
shrunken log2 fold change: -0.0296

RRIRPRPPRLPRPRPRPMANPRP
shrunken log2 fold change: 1.35

RRIRPRPPRLPRPRPRPMDAPRP
shrunken log2 fold change: -0.128

RRIRPRPPRLPRPRPRPMGPPRP
shrunken log2 fold change: -0.248

RRIRPRPPRLPRPRPRPMIAPRP
shrunken log2 fold change: -0.0488

RRIRPRPPRLPRPRPRPMKFPRP
shrunken log2 fold change: -0.248

RRIRPRPPRLPRPRPRPMKRPRP
shrunken log2 fold change: 0.153

RRIRPRPPRLPRPRPRPMKVPRP
shrunken log2 fold change: -0.0686

RRIRPRPPRLPRPRPRPMMHPRP
shrunken log2 fold change: -0.0262

RRIRPRPPRLPRPRPRPMNIPRP
shrunken log2 fold change: -0.793

RRIRPRPPRLPRPRPRPMNRPRP
shrunken log2 fold change: -0.118

RRIRPRPPRLPRPRPRPMPDPRP
shrunken log2 fold change: 0.163

RRIRPRPPRLPRPRPRPMPSPRP
shrunken log2 fold change: -0.0976

RRIRPRPPRLPRPRPRPMQEPRP
shrunken log2 fold change: -0.0107

RRIRPRPPRLPRPRPRPMRNPRP
shrunken log2 fold change: 0.905

RRIRPRPPRLPRPRPRPMRPPRP
shrunken log2 fold change: 1.04

RRIRPRPPRLPRPRPRPMRRPRP
shrunken log2 fold change: 0.537

RRIRPRPPRLPRPRPRPMSYPRP
shrunken log2 fold change: 0.296

RRIRPRPPRLPRPRPRPMTRPRP
shrunken log2 fold change: 0.0702

RRIRPRPPRLPRPRPRPMWTPRP
shrunken log2 fold change: 0.0739

RRIRPRPPRLPRPRPRPMYGPRP
shrunken log2 fold change: -0.182

RRIRPRPPRLPRPRPRPMYYPRP
shrunken log2 fold change: -0.631

RRIRPRPPRLPRPRPRPNAQPRP
shrunken log2 fold change: 0.0626

RRIRPRPPRLPRPRPRPNDDPRP
shrunken log2 fold change: -0.188

RRIRPRPPRLPRPRPRPNEDPRP
shrunken log2 fold change: -0.509

RRIRPRPPRLPRPRPRPNEQPRP
shrunken log2 fold change: 0.062

RRIRPRPPRLPRPRPRPNFPPRP
shrunken log2 fold change: 0.0652

RRIRPRPPRLPRPRPRPNFTPRP
shrunken log2 fold change: 0.0917

RRIRPRPPRLPRPRPRPNFWPRP
shrunken log2 fold change: 0.153

RRIRPRPPRLPRPRPRPNGEPRP
shrunken log2 fold change: 0.137

RRIRPRPPRLPRPRPRPNHNPRP
shrunken log2 fold change: -0.755

RRIRPRPPRLPRPRPRPNLFPRP
shrunken log2 fold change: 0.175

RRIRPRPPRLPRPRPRPNMCPRP
shrunken log2 fold change: -0.0958

RRIRPRPPRLPRPRPRPNMIPRP
shrunken log2 fold change: -0.531

RRIRPRPPRLPRPRPRPNMKPRP
shrunken log2 fold change: -0.52

RRIRPRPPRLPRPRPRPNMLPRP
shrunken log2 fold change: -0.367

RRIRPRPPRLPRPRPRPNNVPRP
shrunken log2 fold change: -0.22

RRIRPRPPRLPRPRPRPNPFPRP
shrunken log2 fold change: -0.382

RRIRPRPPRLPRPRPRPNPKPRP
shrunken log2 fold change: 0.0202

RRIRPRPPRLPRPRPRPNQKPRP
shrunken log2 fold change: -0.0811

RRIRPRPPRLPRPRPRPNQNPRP
shrunken log2 fold change: -0.178

RRIRPRPPRLPRPRPRPNQWPRP
shrunken log2 fold change: 0.139

RRIRPRPPRLPRPRPRPNSMPRP
shrunken log2 fold change: -0.251

RRIRPRPPRLPRPRPRPNTEPRP
shrunken log2 fold change: -0.124

RRIRPRPPRLPRPRPRPNVSPRP
shrunken log2 fold change: -0.0557

RRIRPRPPRLPRPRPRPNYGPRP
shrunken log2 fold change: 0.111

RRIRPRPPRLPRPRPRPPALPRP
shrunken log2 fold change: 0.388

RRIRPRPPRLPRPRPRPPANPRP
shrunken log2 fold change: 0.418

RRIRPRPPRLPRPRPRPPATPRP
shrunken log2 fold change: 0.939

RRIRPRPPRLPRPRPRPPCSPRP
shrunken log2 fold change: -0.232

RRIRPRPPRLPRPRPRPPEAPRP
shrunken log2 fold change: 0.0126

RRIRPRPPRLPRPRPRPPEFPRP
shrunken log2 fold change: -0.122

RRIRPRPPRLPRPRPRPPELPRP
shrunken log2 fold change: 0.206

RRIRPRPPRLPRPRPRPPGGPRP
shrunken log2 fold change: 0.968

RRIRPRPPRLPRPRPRPPGPPRP
shrunken log2 fold change: 0.576

RRIRPRPPRLPRPRPRPPHKPRP
shrunken log2 fold change: 0.452

RRIRPRPPRLPRPRPRPPHPPRP
shrunken log2 fold change: 0.292

RRIRPRPPRLPRPRPRPPHWPRP
shrunken log2 fold change: 0.865

RRIRPRPPRLPRPRPRPPLSPRP
shrunken log2 fold change: 0.161

RRIRPRPPRLPRPRPRPPNLPRP
shrunken log2 fold change: 0.0664

RRIRPRPPRLPRPRPRPPPAPRP
shrunken log2 fold change: 2.01

RRIRPRPPRLPRPRPRPPPGPRP
shrunken log2 fold change: 0.816

RRIRPRPPRLPRPRPRPPPYPRP
shrunken log2 fold change: 0.0995

RRIRPRPPRLPRPRPRPPRQPRP
shrunken log2 fold change: 0.334

RRIRPRPPRLPRPRPRPPRVPRP
shrunken log2 fold change: 0.447

RRIRPRPPRLPRPRPRPPTYPRP
shrunken log2 fold change: -0.204

RRIRPRPPRLPRPRPRPPVMPRP
shrunken log2 fold change: 0.303

RRIRPRPPRLPRPRPRPPVVPRP
shrunken log2 fold change: 0.649

RRIRPRPPRLPRPRPRPQARPRP
shrunken log2 fold change: 0.208

RRIRPRPPRLPRPRPRPQAWPRP
shrunken log2 fold change: 0.179

RRIRPRPPRLPRPRPRPQDPPRP
shrunken log2 fold change: -0.135

RRIRPRPPRLPRPRPRPQDSPRP
shrunken log2 fold change: -0.196

RRIRPRPPRLPRPRPRPQEEPRP
shrunken log2 fold change: 0.0679

RRIRPRPPRLPRPRPRPQELPRP
shrunken log2 fold change: 0.126

RRIRPRPPRLPRPRPRPQERPRP
shrunken log2 fold change: 0.0985

RRIRPRPPRLPRPRPRPQGLPRP
shrunken log2 fold change: -0.122

RRIRPRPPRLPRPRPRPQIQPRP
shrunken log2 fold change: -0.286

RRIRPRPPRLPRPRPRPQKDPRP
shrunken log2 fold change: -0.132

RRIRPRPPRLPRPRPRPQKLPRP
shrunken log2 fold change: -0.0225

RRIRPRPPRLPRPRPRPQKSPRP
shrunken log2 fold change: 0.0462

RRIRPRPPRLPRPRPRPQNAPRP
shrunken log2 fold change: -0.0677

RRIRPRPPRLPRPRPRPQNNPRP
shrunken log2 fold change: -0.812

RRIRPRPPRLPRPRPRPQPEPRP
shrunken log2 fold change: 0.47

RRIRPRPPRLPRPRPRPQPKPRP
shrunken log2 fold change: 0.147

RRIRPRPPRLPRPRPRPQPTPRP
shrunken log2 fold change: -0.0242

RRIRPRPPRLPRPRPRPQQVPRP
shrunken log2 fold change: 0.14

RRIRPRPPRLPRPRPRPQRMPRP
shrunken log2 fold change: 0.209

RRIRPRPPRLPRPRPRPQRVPRP
shrunken log2 fold change: 0.202

RRIRPRPPRLPRPRPRPQSWPRP
shrunken log2 fold change: -0.134

RRIRPRPPRLPRPRPRPQVDPRP
shrunken log2 fold change: -0.0328

RRIRPRPPRLPRPRPRPQVEPRP
shrunken log2 fold change: 0.102

RRIRPRPPRLPRPRPRPQVFPRP
shrunken log2 fold change: 0.0117

RRIRPRPPRLPRPRPRPQYRPRP
shrunken log2 fold change: -0.105

RRIRPRPPRLPRPRPRPRCHPRP
shrunken log2 fold change: 0.144

RRIRPRPPRLPRPRPRPRDCPRP
shrunken log2 fold change: 0.277

RRIRPRPPRLPRPRPRPREKPRP
shrunken log2 fold change: 0.489

RRIRPRPPRLPRPRPRPREYPRP
shrunken log2 fold change: 0.115

RRIRPRPPRLPRPRPRPRFQPRP
shrunken log2 fold change: -0.0819

RRIRPRPPRLPRPRPRPRIHPRP
shrunken log2 fold change: -0.00548

RRIRPRPPRLPRPRPRPRIVPRP
shrunken log2 fold change: -0.0281

RRIRPRPPRLPRPRPRPRMYPRP
shrunken log2 fold change: -0.128

RRIRPRPPRLPRPRPRPRPHPRP
shrunken log2 fold change: 0.499

RRIRPRPPRLPRPRPRPRPKPRP
shrunken log2 fold change: 3.22

RRIRPRPPRLPRPRPRPRPNPRP
shrunken log2 fold change: 0.505

RRIRPRPPRLPRPRPRPRQGPRP
shrunken log2 fold change: 0.236

RRIRPRPPRLPRPRPRPRRFPRP
shrunken log2 fold change: 0.0399

RRIRPRPPRLPRPRPRPRVTPRP
shrunken log2 fold change: 0.326

RRIRPRPPRLPRPRPRPRVVPRP
shrunken log2 fold change: 0.341

RRIRPRPPRLPRPRPRPRYTPRP
shrunken log2 fold change: -0.266

RRIRPRPPRLPRPRPRPSADPRP
shrunken log2 fold change: -0.0256

RRIRPRPPRLPRPRPRPSAFPRP
shrunken log2 fold change: 0.191

RRIRPRPPRLPRPRPRPSAHPRP
shrunken log2 fold change: -0.167

RRIRPRPPRLPRPRPRPSAYPRP
shrunken log2 fold change: -0.386

RRIRPRPPRLPRPRPRPSCWPRP
shrunken log2 fold change: 0.36

RRIRPRPPRLPRPRPRPSDYPRP
shrunken log2 fold change: -0.691

RRIRPRPPRLPRPRPRPSGTPRP
shrunken log2 fold change: 0.669

RRIRPRPPRLPRPRPRPSGVPRP
shrunken log2 fold change: -0.0831

RRIRPRPPRLPRPRPRPSKAPRP
shrunken log2 fold change: -0.175

RRIRPRPPRLPRPRPRPSKLPRP
shrunken log2 fold change: -0.224

RRIRPRPPRLPRPRPRPSKNPRP
shrunken log2 fold change: -0.333

RRIRPRPPRLPRPRPRPSKSPRP
shrunken log2 fold change: -0.123

RRIRPRPPRLPRPRPRPSLGPRP
shrunken log2 fold change: 0.342

RRIRPRPPRLPRPRPRPSLSPRP
shrunken log2 fold change: 0.022

RRIRPRPPRLPRPRPRPSMKPRP
shrunken log2 fold change: -0.223

RRIRPRPPRLPRPRPRPSMSPRP
shrunken log2 fold change: -0.409

RRIRPRPPRLPRPRPRPSNCPRP
shrunken log2 fold change: -0.909

RRIRPRPPRLPRPRPRPSPGPRP
shrunken log2 fold change: 0.0372

RRIRPRPPRLPRPRPRPSQEPRP
shrunken log2 fold change: -0.199

RRIRPRPPRLPRPRPRPSQFPRP
shrunken log2 fold change: -0.0669

RRIRPRPPRLPRPRPRPSRDPRP
shrunken log2 fold change: -0.109

RRIRPRPPRLPRPRPRPSRWPRP
shrunken log2 fold change: 0.611

RRIRPRPPRLPRPRPRPSSNPRP
shrunken log2 fold change: -0.388

RRIRPRPPRLPRPRPRPSTLPRP
shrunken log2 fold change: -0.139

RRIRPRPPRLPRPRPRPSTVPRP
shrunken log2 fold change: -0.687

RRIRPRPPRLPRPRPRPSVGPRP
shrunken log2 fold change: -0.295

RRIRPRPPRLPRPRPRPSVKPRP
shrunken log2 fold change: -0.277

RRIRPRPPRLPRPRPRPSVQPRP
shrunken log2 fold change: -0.0553

RRIRPRPPRLPRPRPRPSWAPRP
shrunken log2 fold change: 0.0666

RRIRPRPPRLPRPRPRPSYAPRP
shrunken log2 fold change: -0.106

RRIRPRPPRLPRPRPRPSYPPRP
shrunken log2 fold change: -0.181

RRIRPRPPRLPRPRPRPTAEPRP
shrunken log2 fold change: 0.595
